According to publication doi:10.1101/2023.02.24.529973 (bioRxiv, 2023):

Molecular target: the molecule itself
Experiment: SEC

B1: Rv2067c, recombinant tagless protein (enzyme)
chain: TDDHPRADIVSRQYHRWLYPHPIADLEAWTTANWEWFDPVHSHRILWPDREYRPDLDILIAGCGTNQAAIFAFTNRAAKVVAIDISRPALDHQQYLKDKHGLANLELHLLPIEELATLGRDFDLVVSTGVLHHLADPRAGMKELAHCLRRDGVVAAMLYGKYGRIGVELLGSVFRDLGLGQDDASIKLAKEAISLLPTYHPLRNYLTKARDLLSDSALVDTFLHGRQRSYTVEECVDLVTSAGLVFQGWFHKAPYYPHDFFVPNSEFYAAVNTLPEVKAWSVMERLETLNATHLFMACRRDRPKEQYTIDFSTVAALDYVPLMRTRCGVSGTDMFWPGWRMAPSPAQLAFLQQVDGRRTIREIAGCVARTGEPSGGSLADLEEFGRKLFQSLWRLDFVAVALPASG
stoichiometry N: 2
